The source of these data is paper PMC9842639, “Insights into pyrrolysine function from structures of a trimethylamine methyltransferase and its corrinoid protein complex” (Communications Biology, 2023).

One may read the Km as the concentration of substrate that gives half-maximal velocity. In general, stoichiometry N refers to the number of molecules, sites or subunits per partner or assembly.

First the molecules themselves.
B1: MttB (Methanosarcina barkeri; C-TERMINAL/CHANGE/GGHHHHHH/IS/NO/TAG) (protein)
chain: MAKNNAVAGFNALNGVELNLFTTDELKAIHYATMEVLMDPGIQVSDPEARQIFKENGCEVNEKTNVVKIPEYLVRKALQLAPSRFVLWGRDKKFNTVQECGGKVHWTCFGTGVKVCKYQDGKYVTVDSVEKDIADIAKLCDWAENIDYFSLPVSARDIAGQGAQDVHETLTPLANTAKHFHHIDPVGENVEYYRDIVKAYYGGDEEEARKKPIFSMLLCPTSPLELSVNACQVIIKGARFGIPVNVLSMAMSGGSSPVYLAGTLVTHNAEVLSGIVLAQLTVPGAKVWYGSSTTTFDLKKGTAPVGSPELGLISAAVAKLAQFYGLPSYVAGSOSDAKVPDDQAGHEKTMTTLLPALAGANTIYGAGMLELGMTFSMEQLVIDNDIFSMVKKAMQGIPVSEETLAVESIQKVGIGNNFLALKQTRQLVDYPSNPMLLDRHMFGDWAAAGSKDLATVAHEKVEDVLKNHQVTPIDADIFKDMQAIVDKADKAFRGM
notes: full length with C-terminal GGHHHHHH tag, contains pyrrolysine at 334 (amber codon); expressed in Methanosarcina acetivorans C2A; D3 homohexamer (trimer of dimers)
B2: MttB (Methanosarcina barkeri; Y364F) (protein)
chain: B1 chain with Y364F
notes: as for B1
B3: Methanosarcina barkeri trimethylamine methyltransferase MttB (enzyme, Methanosarcina barkeri MS, UniProt O93658 1-495, looked up)
chain: B1 chain
modifications: pyrrolysine at 334 (Pyl334)
notes: Trimethylamine methyltransferase MttB, product of the mttB1 gene amplified from M. barkeri MS genomic DNA; the in-frame amber codon is read as pyrrolysine (Pyl334); residues 2-495 are described in the structure; D3-symmetric homo-hexamer (trimer of dimers) in the crystals; No step that removes the tag is described; The PDB ids are printed in two ways (7XCL/7XCM in the methods, 7LCL/7LCM in the …)
B4: Methanosarcina barkeri trimethylamine corrinoid protein MttC (natural protein, UniProt O93659 1-217, looked up)
chain: MANKEEIIAKAKEAITDFDDELAEEVANEALAAGIDPVELIEKGFTAGMEEVGEKFGQGELFLPHVLAAAEAMNSGIKVITPEMEKRKSQTKSLGTVAIGTIEGDIHSIGKDIVASMLNIAGFKVVDLGRDVPINTFVEKVKELKPQVVASSALMTTTMVNQIQIEEQLKEAGVRDQVKTMVGGAPVTQDWADKIGADIYGESANDAVAKVKAALNV
notes: Trimethylamine corrinoid protein MttC of M. barkeri; mttC gene cloned by a strategy similar to that for mttB1; helical cap domain residues 2-84, connecting loop 85-95, core domain 96-216; No step that removes the tag is described; also called MttC-His6; cognate corrinoid protein; source: Methanosarcina acetivorans C2A transformed with plasmid pTC311, purified (HiTrap HP column, Mono-Q HR 10/10)

Changes are numbered by the printed parent chain. Names and notes keep the numbering of the source.

One data set concerns the target T1, MttB (Methanosarcina barkeri, UniProt O93658).
T1 construct: full length with C-terminal GGHHHHHH tag, contains pyrrolysine at 334 (amber codon); expressed in Methanosarcina acetivorans C2A; D3 homohexamer (trimer of dimers)
In words: X-ray crystal structure, […] Å. Format: binding. As to conditions: covalent; adduct on imine carbon of Pyl334; crystal soaked with saturated sodium dithionite, pH 4.5.

Substrate in the data set “purified protein”: CN(C)C
In words: purified protein. Format: biochemical, Methanosarcina barkeri. As to conditions: 30 µM Co(I)-MttC as methyl acceptor, RamA, 2 mM Ti(III)-citrate, 2.5 mM ATP, 2.5 mM MgCl2, phosphate pH 7.2, 37 °C, anaerobic.

Data set [1] concerns the molecule itself. In words: crystal structure; MttB alone; vapor diffusion at 10 °C; 8 mg/mL MttB in 20 mM potassium phosphate pH 7.4, 500 mM NaCl, 240 mM imidazole, 20% glycerol; reservoir 4% MPD, 0.1 M citric acid pH 4.5; 2.5 Å.
Data set [2] concerns the target B3. The data set is described as follows: crystal structure; MttB-MttC complex; hanging drops at 10 °C of MttB (3 mg/mL) and MttC (10 mg/mL) mixed with 18% PEG8000, 0.1 M citric acid pH 5, 1 M LiCl; crystals soaked with 12.5 mM N,N-dimethyl-hydroxylamine; 2.7 Å, space group P21. As to conditions: both partners purified.

In the case of `O=S(O)O` [sulfite], the “X-ray crystal structure, 3.2 Å” value at MttB was “addition of sulfite to the pyrrolysine imine carbon of MttB was observed”.
In the case of B1, in the data set “purified protein”, the Michaelis constant (Km) was 49 ± 6 µM and the kcat is given as 48 ± 2 turnovers per min.
In the same order, the values of B2 are 75 ± 11 µM and 1.7 ± 0.1 turnovers per min.
Consider B3, for which the “stoichiometry N” value in data set [1] worked out at 6.
With B4, the binding result in data set [2] is given as “binds”.
